Reference: US20080235824A1, “Use of Esterase Genes as Selectable Markers for Transforming Plant Cells” (priority 2006, published 2008)

Experiments:
[1] = Phenol red lipase/esterase assay with crude plant leaf extracts; type: biochemical
Source text: In this Figure, the first tube on the left (labeled “Buffer”) contains phenol red buffer and Tween 20 (the dark red color appears dark in this black and white figure); the second tube to the right (“SL”) has 4 Units of Sigma porcine pancreatic lipase added (the bright yellow color appears light); the third tube to the right (labeled “731”) has a twenty microliter droplet of a crude tomato plant leaf extract from leaves inoculated 4 days earlier with GV2260 carrying “empty” (ie., no lipase gene) expression vector pIPG731 (the dark red color appears dark), and the fourth tube to the right (“768 WI”) has a twenty microliter droplet of crude tomato plant leaf extract from leaves inoculated four days earlier with GV2260 carrying cloned bovine pregastric esterase expressed in pIPG768 (the bright yellow color appears light). Tomato leaf tissue particles may be seen floating in the third and fourth tubes to the right. […] The photo was taken 16 hrs. after start of the assay.
(§1) For transient expression assays of bovine PGE, the plant transformation and expression vectors constructed in Example 12 were moved into A. tumefaciens strain GV2260 by either electroporation or bacterial conjugation as described (Kapila et al., 1997). GV2260 carrying pIPG745 or pIPG746 was used for transient expression in tobacco, pepper, tomato, citrus, geranium, and rice plants as described (Kapila et al. 1997; Duan et al., 1999; Wroblewski et al. 2005). Cultures of Agrobacterium harboring the constructs of interest were grown in minimal medium in the presence of acetosyringone to induce the Agrobacterium vir genes. The optical density of the cultures was maintained at 0.008 for pepper and tomato and at 0.25 for citrus, geranium and rice. Strain GV2260 was flooded into healthy, young, fully expanded leaves of vigorous plants into the apoplastic space through open stomata by injection using a tuberculin syringe without a needle, flooding entire leaves. After 3-4 days, two grams of leaf tissue (fresh weight), was ground in liquid nitrogen to a fine powder, and 0.5 ml of ice cold phosphate buffered saline (PBS; 137 mM NaCl, 2.7 mM KCl, 10 mM potassium phosphate, pH 7.4) was added and mixed thoroughly at 4 C. The mixture was mixed on an orbital shaker at 4 C for 30 minutes, and plant debris was pelleted at 10,000×g for 15 minutes and discarded. The supernatants from these crude plant leaf extracts were directly used in lipase/esterase assays.
The second activity assay was a phenol red lipase/esterase assay using tributyrin, olive oil or Tween 20 as substrates as described by Singh et al. (2006), except that liquid medium, rather than solidified agar medium, was used. Twenty microliter droplets of crude plant leaf extracts and the positive control were placed in the tributyrin/phenol red medium containing tributyrin, olive oil or Tween 20 and incubated at 30 C overnight. […] Transient expression of bovine PGE was confirmed in tobacco, pepper, tomato, citrus, geranium, and rice plants.
For transient expression assays, the plant transformation and expression vectors constructed in Example 15 were moved into A. tumefaciens strain GV2260 by electroporation. GV2260 carrying pIPG823 was used for transient expression in tobacco and geranium plants exactly as described in Example 20. The supernatants from crude plant leaf extracts were directly used in phenol red lipase/esterase assays using tributyrin and olive oil as substrates exactly as described in Example 20.

[2] = Rhodamine lipase assay with crude plant leaf extracts; type: biochemical; details: 0.025 ml droplets (crude leaf extract or 20 U porcine lipase); 30 C overnight
Source text: as §1, with “After 3-4 days, two grams of leaf tissue (fresh weight), was ground in liquid nitrogen to a fine powder, and 0.5 ml of ice cold phosphate buffered saline (PBS; 137 mM NaCl, 2.7 mM KCl, 10 mM potassium phosphate, pH 7.4) was added and mixed thoroughly at 4 C. The mixture was mixed on an orbital shaker at 4 C for 30 minutes, and plant debris was pelleted at 10,000×g for 15 minutes and discarded. The supernatants from these crude plant leaf extracts were directly used in lipase/esterase assays.” left out
Two lipase/esterase activity assays were used. […] Lower intensity fluorescence was also observed from the empty vector controls. In order to quantify the difference, 0.2 ml of the rhodamine olive oil suspension was mixed with 0.1 ml of plant extract and allowed to incubate at 30 C for 24 hrs. Fluorescence was measured using a Tecan Spectraluor Plus spectrofluorimeter (excitation=360 nm; emission=535 nm).

Phenol red indicator tube color (FIG. 2) ([1]; Tween 20 substrate, 16 hrs after start, tomato leaf extract or 4 Units lipase): bright yellow
Phenol red indicator color change ([1]; substrates tributyrin and olive oil, extracts of tobacco and geranium leaves, nematode esterase construct): color change from red to bright yellow
Phenol red indicator color change ([1]; substrates tributyrin, olive oil or Tween 20, twenty microliter droplets, 30 C overnight, bovine PGE constructs): color change from red to bright yellow
Fluorescence on rhodamine olive oil agar plates [2]: Bright fluorescent spots
B1: porcine lipase: Commercial porcine pancreatic lipase, positive control of the lipase/esterase assays (protein, UniProt P00591 1-450, looked up)
Pancreatic triacylglycerol …: SEVCFPRLGCFSDDAPWAGIVQRPLKILPWSPKDVDTRFLLYTNQNQNNYQELVADPSTITNSNFRMDRKTRFIIHGFIDKGEEDWLSNICKNLFKVESVNCICVDWKGGSRTGYTQASQNIRIVGAEVAYFVEVLKSSLGYSPSNVHVIGHSLGSHAAGEAGRRTNGTIERITGLDPAEPCFQGTPELVRLDPSDAKFVDVIHTDAAPIIPNLGFGMSQTVGHLDFFPNGGKQMPGCQKNILSQIVDIDGIWEGTRDFVACNHLRSYKYYADSILNPDGFAGFPCDSYNVFTANKCFPCPSEGCPQMGHYADRFPGKTNGVSQVFYLNTGDASNFARWRYKVSVTLSGKKVTGHILVSLFGNEGNSRQYEIYKGTLQPDNTHSDEFDSDVEVGDLQKVKFIWYNNNVINPTLPRVGASKITVERNDGKVYDFCSQETVREEVLLTLNPC
Substrates utilized in phenol red lipase/esterase assay ([1]; transiently plant-expressed enzyme or positive control): utilized all three substrates: tributyrin, olive oil and Tween 20
